Like-named read-outs stand apart in the source and are kept apart here.
B1: T4 bacteriophage clamp-loader ATPase subunit gp44 (wild type) (natural protein)
chain: MITVNEKEHILEQKYRPSTIDECILPAFDKETFKSITSKGKIPHIILHSPSPGTGKTTVAKALCHDVNADMMFVNGSDCKIDFVRGPLTNFASAASFDGRQKVIVIDEFDRSGLAESQRHLRSFMEAYSSNCSIIITANNIDGIIKPLQSRCRVITFGQPTDEDKIEMMKQMIRRLTEICKHEGIAIADMKVVAALVKKNFPDFRKTIGELDSYSSKGVLDAGILSLVTNDRGAIDDVLESLKNKDVKQLRALAPKYAADYSWFVGKLAEEIYSRVTPQSIIRMYEIVGENNQYHGIAANTELHLAYLFIQLACEMQWK
B2: T4 bacteriophage clamp-loader ATPase subunit gp44 D110C (natural protein)
chain: MITVNEKEHILEQKYRPSTIDECILPAFDKETFKSITSKGKIPHIILHSPSPGTGKTTVAKALCHDVNADMMFVNGSDCKIDFVRGPLTNFASAASFDGRQKVIVIDEFCRSGLAESQRHLRSFMEAYSSNCSIIITANNIDGIIKPLQSRCRVITFGQPTDEDKIEMMKQMIRRLTEICKHEGIAIADMKVVAALVKKNFPDFRKTIGELDSYSSKGVLDAGILSLVTNDRGAIDDVLESLKNKDVKQLRALAPKYAADYSWFVGKLAEEIYSRVTPQSIIRMYEIVGENNQYHGIAANTELHLAYLFIQLACEMQWK
B5: T4 bacteriophage sliding clamp (gp45) (natural protein)
chain: MKLSKDTTALLKNFATINSGIMLKSGQFIMTRAVNGTTYAEANISDVIDFDVAIYDLNGFLGILSLVNDDAEISQSEDGNIKIADARSTIFWPAADPSTVVAPNKPIPFPVASAVTEIKAEDLQQLLRVSRGLQIDTIAITVKEGKIVINGFNKVEDSALTRVKYSLTLGDYDGENTFNFIINMANMKMQPGNYKLLLWAKGKQGAAKFEGEHANYVVALEADSTHDF

Assays:
[1] = biological target: the molecule itself; experiment: crystal structure
[2] = biological target: the molecule itself; experiment: crystal structure; remark: listed apart in the source
[3] = biological target: B1; experiment: cryo-EM structure
[4] = biological target: B5; experiment: cryo-EM structure
[5] = biological target: B2; experiment: crystal structure
[6] = biological target: T1, T4 clamp loader D110C/G143R;T4 sliding clamp gp45 (bacteriophage T4;bacteriophage T4, UniProt P04526;P04527;P04525 1-319;1-187;1-228, D110C;G143R|); experiment: fluorescence anisotropy
T1 sequence 1: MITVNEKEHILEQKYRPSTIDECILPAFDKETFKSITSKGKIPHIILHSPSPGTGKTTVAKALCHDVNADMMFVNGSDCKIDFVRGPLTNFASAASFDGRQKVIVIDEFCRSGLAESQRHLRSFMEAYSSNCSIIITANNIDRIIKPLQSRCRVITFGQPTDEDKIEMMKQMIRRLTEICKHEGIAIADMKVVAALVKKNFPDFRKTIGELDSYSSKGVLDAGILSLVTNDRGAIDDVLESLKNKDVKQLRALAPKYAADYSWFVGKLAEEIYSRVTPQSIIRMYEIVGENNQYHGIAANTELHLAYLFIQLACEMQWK
T1 sequence 2: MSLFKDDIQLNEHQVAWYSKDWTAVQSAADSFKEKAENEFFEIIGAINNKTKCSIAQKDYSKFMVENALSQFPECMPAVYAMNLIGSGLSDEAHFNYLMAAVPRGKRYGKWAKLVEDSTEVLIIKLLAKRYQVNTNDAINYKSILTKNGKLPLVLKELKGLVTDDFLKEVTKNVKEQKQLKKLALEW
T1 sequence 3: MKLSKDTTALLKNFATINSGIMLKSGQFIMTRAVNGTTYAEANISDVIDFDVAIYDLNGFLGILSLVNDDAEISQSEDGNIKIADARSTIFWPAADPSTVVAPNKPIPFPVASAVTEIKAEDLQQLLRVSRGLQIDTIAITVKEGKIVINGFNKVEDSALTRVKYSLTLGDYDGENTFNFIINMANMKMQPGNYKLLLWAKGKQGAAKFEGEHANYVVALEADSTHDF

[7] = biological target: T2, T4 clamp loader D110C/P50K (P50K*);T4 sliding clamp gp45 (bacteriophage T4;bacteriophage T4, UniProt P04526;P04527;P04525 1-319;1-187;1-228, P50K;D110C|); experiment: fluorescence anisotropy
T2 sequence 1: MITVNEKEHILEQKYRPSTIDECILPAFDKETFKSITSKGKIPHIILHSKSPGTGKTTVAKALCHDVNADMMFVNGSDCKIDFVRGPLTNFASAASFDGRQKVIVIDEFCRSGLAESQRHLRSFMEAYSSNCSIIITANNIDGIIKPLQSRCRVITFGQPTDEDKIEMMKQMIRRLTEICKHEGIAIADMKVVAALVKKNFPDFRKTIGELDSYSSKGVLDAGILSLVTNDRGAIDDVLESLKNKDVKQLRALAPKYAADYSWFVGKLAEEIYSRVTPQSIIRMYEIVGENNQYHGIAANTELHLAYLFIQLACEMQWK
T2 sequence 2: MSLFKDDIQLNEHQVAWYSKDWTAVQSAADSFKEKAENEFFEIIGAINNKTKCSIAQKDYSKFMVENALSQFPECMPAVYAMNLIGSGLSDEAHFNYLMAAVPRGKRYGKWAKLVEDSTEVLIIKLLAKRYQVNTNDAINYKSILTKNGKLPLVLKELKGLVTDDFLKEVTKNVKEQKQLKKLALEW
T2 sequence 3: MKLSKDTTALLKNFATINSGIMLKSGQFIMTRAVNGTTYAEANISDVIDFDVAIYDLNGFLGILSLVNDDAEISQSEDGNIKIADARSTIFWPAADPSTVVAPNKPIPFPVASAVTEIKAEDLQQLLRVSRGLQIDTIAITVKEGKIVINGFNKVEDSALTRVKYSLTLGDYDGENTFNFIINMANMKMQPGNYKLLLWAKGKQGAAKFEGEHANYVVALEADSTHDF

[8] = biological target: T3, T4 clamp loader (gp44/gp62), wild type;T4 sliding clamp gp45 (bacteriophage T4;bacteriophage T4, UniProt P04526;P04527;P04525 1-319;1-187;1-228, |); experiment: fluorescence anisotropy
T3 sequence 1: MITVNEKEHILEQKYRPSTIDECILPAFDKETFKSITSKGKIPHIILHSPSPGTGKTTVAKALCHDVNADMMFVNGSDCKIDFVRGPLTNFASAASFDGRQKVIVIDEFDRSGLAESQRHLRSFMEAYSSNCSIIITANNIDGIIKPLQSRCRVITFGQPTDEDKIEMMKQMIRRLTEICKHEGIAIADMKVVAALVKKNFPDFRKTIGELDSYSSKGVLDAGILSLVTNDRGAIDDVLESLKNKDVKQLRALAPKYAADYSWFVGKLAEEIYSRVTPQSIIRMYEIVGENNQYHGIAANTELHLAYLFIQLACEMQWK
T3 sequence 2: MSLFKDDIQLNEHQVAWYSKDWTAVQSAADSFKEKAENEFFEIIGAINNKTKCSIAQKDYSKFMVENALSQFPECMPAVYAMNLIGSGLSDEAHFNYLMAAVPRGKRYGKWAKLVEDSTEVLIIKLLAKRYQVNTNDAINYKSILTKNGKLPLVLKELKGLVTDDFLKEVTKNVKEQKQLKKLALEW
T3 sequence 3: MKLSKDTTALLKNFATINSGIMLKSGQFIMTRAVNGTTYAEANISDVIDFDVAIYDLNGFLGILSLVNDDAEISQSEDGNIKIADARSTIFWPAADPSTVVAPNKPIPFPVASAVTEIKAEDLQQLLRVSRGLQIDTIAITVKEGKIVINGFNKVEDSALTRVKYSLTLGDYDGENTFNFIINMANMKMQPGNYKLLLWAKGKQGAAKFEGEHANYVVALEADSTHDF

## B1
[1]
  binding result: binds

## B2
[2]
  binding result: binds

B3: T4 bacteriophage clamp-loader clasp subunit gp62 (natural protein)
chain: MSLFKDDIQLNEHQVAWYSKDWTAVQSAADSFKEKAENEFFEIIGAINNKTKCSIAQKDYSKFMVENALSQFPECMPAVYAMNLIGSGLSDEAHFNYLMAAVPRGKRYGKWAKLVEDSTEVLIIKLLAKRYQVNTNDAINYKSILTKNGKLPLVLKELKGLVTDDFLKEVTKNVKEQKQLKKLALEW
[3]
  binding result: binds
[4]
  binding result: binds
[5]
  binding result: binds

B4: TAMRA primer-template DNA (dsDNA)
DNA 1: TTTTTTTTTTTTATGTACTCGTAGTGTCTG
DNA 2: GCAGACACTACGAGTACATA
[6]
  binding result: binds
[7]
  binding result: binds
[8]
  Kd: ~40 nM

## B5
[2]
  binding result: binds

— article PMC10950542 (Nature structural & molecular biology, 2024)
